Test results reported in EP4386000A1 (Nanjing Novoacine Bio-Technology Co., Ltd., dated 2024).
Read-outs that look alike come from different tables or passages of the source.

T1: human CD25 (NP_000408.1) (Met 1-Cys 213) C-terminally fused with 6-histidine tag (human, UniProt P01589 22-213)
T1 construct: range 1-213; Expressed in CHO-K1 cells; also called human CD25-his
T1 sequence: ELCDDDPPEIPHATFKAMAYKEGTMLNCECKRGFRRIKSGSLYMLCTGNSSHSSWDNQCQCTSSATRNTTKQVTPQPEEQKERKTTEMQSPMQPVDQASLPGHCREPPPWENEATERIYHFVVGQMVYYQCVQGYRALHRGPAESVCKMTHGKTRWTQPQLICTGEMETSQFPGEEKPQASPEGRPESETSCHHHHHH

T2: CD25 on CD4+CD25+ Treg cells isolated from human PBMCs (human, UniProt P01589 22-272)
T2 sequence (looked up): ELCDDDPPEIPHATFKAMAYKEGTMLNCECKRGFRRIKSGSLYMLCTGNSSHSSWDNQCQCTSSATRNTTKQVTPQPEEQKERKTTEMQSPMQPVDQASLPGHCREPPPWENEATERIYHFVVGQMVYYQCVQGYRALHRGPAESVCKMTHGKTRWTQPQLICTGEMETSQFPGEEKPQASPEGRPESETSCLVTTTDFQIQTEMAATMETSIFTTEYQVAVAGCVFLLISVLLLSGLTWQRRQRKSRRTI

T3: Mouse CD25-his (UniProtKB-P01590, Met1-Lys213) (mouse, UniProt P01590 22-213)
T3 construct: range 1-213; Range begins at Met1 (includes the signal peptide); not shown: his tag
T3 sequence (looked up): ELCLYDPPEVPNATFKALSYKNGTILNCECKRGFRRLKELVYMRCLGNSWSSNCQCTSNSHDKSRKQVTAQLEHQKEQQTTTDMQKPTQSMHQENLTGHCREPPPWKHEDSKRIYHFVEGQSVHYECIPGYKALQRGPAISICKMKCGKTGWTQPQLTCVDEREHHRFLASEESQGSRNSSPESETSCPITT

T4: human CD25 on CHO-K1/hCD25 cells (human, UniProt P01589 22-272)
T4 construct: whole, on cells; The construct of the cell line is not described
T4 sequence (looked up): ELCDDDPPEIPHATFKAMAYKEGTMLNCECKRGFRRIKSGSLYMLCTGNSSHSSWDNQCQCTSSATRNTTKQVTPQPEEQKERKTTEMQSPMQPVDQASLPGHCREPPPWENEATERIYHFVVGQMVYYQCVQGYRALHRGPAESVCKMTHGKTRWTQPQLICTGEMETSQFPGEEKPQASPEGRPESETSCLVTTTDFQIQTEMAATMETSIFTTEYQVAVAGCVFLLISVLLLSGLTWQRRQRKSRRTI


Assays:
[1] = molecular target: T1, human CD25 (NP_000408.1) (Met 1-Cys …); experiment: SPR (BIAcore X100), human CD25-his captured by anti-histidine antibody, antibody as analyte, 1:1 model
[2] = molecular target: T2, CD25 on CD4+CD25+ Treg cells isolated …; experiment: cell-based or functional assay
[3] = molecular target: T2, CD25 on CD4+CD25+ Treg cells isolated …; experiment: cell-based or functional assay; remark: listed apart in the source
[4] = molecular target: T3, Mouse CD25-his (UniProtKB-P01590, …); experiment: ELISA, mouse CD25-his coated
[5] = molecular target: T1, human CD25 (NP_000408.1) (Met 1-Cys …); experiment: ELISA, human CD25-his coated
[6] = molecular target: T5, cyno CD25-his (NCBI-H6WS54, Met1-Arg213) (cyno); experiment: ELISA, cyno CD25-his coated
T5 construct: range 1-213; Range begins at Met1 (includes the signal peptide)

[7] = molecular target: T1, human CD25 (NP_000408.1) (Met 1-Cys …); experiment: SPR (BIAcore X100), human CD25-his captured by anti-histidine antibody, antibody as analyte, 1:1 model; remark: listed apart in the source
[8] = molecular target: T4, human CD25 on CHO-K1/hCD25 cells; experiment: flow cytometry on CHO-K1/hCD25 cells

Row | Binder | Kd [1] [nM] | koff [1] [s⁻¹] | kon [1] [M⁻¹ s⁻¹] | EC50, killing Tregs in vitro (ADCC reporter, jurkat/CD16a/NFAT-luc) [2] [µg/mL] | EC50, killing Tregs in vitro (ADCC reporter, jurkat/CD16a/NFAT-luc) [3] [µg/mL] | Relative activity (%) compared with 686, killing Tregs in vitro [3] [%] | binding result [4] | EC50 [5] [µg/mL] | Relative activity (%) compared with 686 [5] [%] | EC50 [6] [µg/mL] | Kd [7] [nM] | koff [7] [s⁻¹] | kon [7] [M⁻¹ s⁻¹] | EC50 [8] [µg/mL] | Relative activity (%) compared with 686 [8] [%]
1 | humanized antibody 2046-18H1L1-m2 (antibody, human IgG1, kappa, V domains shown) VH: EVQLQESGPGLVKPSQTLSLTCTVSGYSITSDYAWNWIRQPPGKGLEWIGYISYSGITIYNPSLKSRVTISRDTSKNQFSLKLSSVTAADTAVYYCARWLLQIYYAMDYWGQGTLVTVSS VL: EIVLTQSPGTLSLSPGERATLSCSSSQSLVHSNGNTYLHWYQQKPGQAPRLLIYKVSNRFSGIPDRFSGSGSGTDFTLTISRLEPEDFAVYYCSQSTHVPLTFGQGTKLEIKR | 2.45 | 0.00137 | 560000 | 82.6 | – | – | – | – | – | – | – | – | – | – | –
2 | chimeric antibody 2046-36H2L1 (antibody, human IgG1, kappa, V domains shown, Chimeric, human IgG1/kappa; also called 2046-36ix) VH: QIQLVQSGPELKKPGETVRISCKASGYTFTTAGMQWVQKMPGKGLKWIGWINTHSGVPKYAEDFKGRFAFSLETSASTAYLQISNLKNEDTATYFCASDYAFGYWGQGTLVTVSA VL: not shown | – | – | – | – | 52.4 | 248 | no binding (tested: starting at 100 ng/mL) | 0.103 | 101 | 0.0549 | 2.45 | 0.00933 | 3.8e+06 | 0.00167 | 73.3
